Common to all, as to assay: cell_activity
One data set deals with ZFN 51463 (synthetic). As to conditions: paired with 51536, CD34+ cells.
The test system of the next data set is ZFN 51446 (synthetic). The settings on record: paired with 51536, CD34+ cells.
Another data set relates to ZFN 51484 (synthetic). As to conditions: paired with 51536, CD34+ cells.
In another data set the test system is ZFN 51477 (synthetic). As to conditions: paired with 51536, CD34+ cells.
The test system of a further data set is ZFN 51856 (synthetic). As to conditions: paired with 51949, CD34+ cells, 500 ng mRNA each.
The next data set deals with ZFN 51487 (synthetic). The settings on record: paired with 51536, CD34+ cells.
Another data set relates to ZFN 46801 (synthetic). The settings on record: paired with 47923, K562, 25 ng each.
A further data set relates to ZFN 51478 (synthetic). The settings on record: paired with 51536, CD34+ cells.
For another data set, the system named is ZFN 51862 (synthetic). As to conditions: paired with 51949, CD34+ cells, 500 ng mRNA each.
The subject of a further data set is ZFN 51519 (synthetic). As to conditions: paired with 51446, CD34+ cells.
A further data set relates to ZFN 51534 (synthetic). The settings on record: paired with 51446, CD34+ cells.
A further data set has as its system ZFN 51982 (synthetic). The settings on record: paired with 51857, CD34+ cells, 500 ng mRNA each.
The subject of another data set is ZFN 51990 (synthetic). As to conditions: paired with 51857, CD34+ cells, 500 ng mRNA each.
A further data set concerns ZFN 51979 (synthetic). The settings on record: paired with 51857, CD34+ cells, 500 ng mRNA each.
The next data set concerns ZFN 51541 (synthetic). The settings on record: paired with 51446, CD34+ cells.
For another data set, the system named is ZFN 51993 (synthetic). As to conditions: paired with 51857, CD34+ cells, 500 ng mRNA each.
Another data set relates to ZFN 51535 (synthetic). The settings on record: paired with 51446, CD34+ cells.
A further data set deals with ZFN 47923 (synthetic). As to conditions: paired with 46801, K562, 25 ng each.
The next data set concerns ZFN 51556 (synthetic). As to conditions: paired with 51446, CD34+ cells.
The subject of a further data set is ZFN 51536 (synthetic). The settings on record: paired with 51446, CD34+ cells.
For another data set, the system named is ZFN 52032 (synthetic). As to conditions: paired with 51857, CD34+ cells, 500 ng mRNA each.
A further data set has as its system ZFN 52015 (synthetic). The settings on record: paired with 51857, CD34+ cells, 500 ng mRNA each.

In the case of “AAAGCAACTGTTAGCTTGCACTAGACTA (double strand) [BCL11A +58 enhancer left half-site, 4-finger]”, the activity in the data set on ZFN 51463 (synthetic) stood at 82.7 % indels; with ZFN 51446 (synthetic), 83.7 % indels.

Regarding “AAAGCAACTGTTAGCTTGCACTAGACTA (double strand) [BCL11A +58 enhancer left half-site, 6-finger]”, the activity is 75.2 % indels with ZFN 51484 (synthetic); 72 % indels in the data set on ZFN 51477 (synthetic); 38.4 % indels with ZFN 51856 (synthetic); 66.3 % indels with ZFN 51487 (synthetic); 9.3 % NHEJ with ZFN 46801 (synthetic); 72.3 % indels with ZFN 51478 (synthetic). This sequence also gave an activity with ZFN 51862 (synthetic) of 18.4 % indels.

Regarding “CACAGGCTCCAGGAAGGGTTTGGCCTCT (double strand) [BCL11A +58 enhancer right half-site]”, the activity in the data set on ZFN 51519 (synthetic) came to 81.5 % indels; in the data set on ZFN 51534 (synthetic), 84.2 % indels; in the data set with ZFN 51982 (synthetic) it was 30.9 % indels; in the data set with ZFN 51990 (synthetic) it was 51 % indels; with ZFN 51979 (synthetic), 39.8 % indels; with ZFN 51541 (synthetic), 87.8 % indels. Also, the activity in the data set with ZFN 51993 (synthetic) was 43.9 % indels; in the data set with ZFN 51535 (synthetic) it was 82.2 % indels; in the data set with ZFN 47923 (synthetic), 9.3 % NHEJ; in the data set on ZFN 51556 (synthetic), 74.1 % indels; in the data set with ZFN 51536 (synthetic), 83.7 % indels; in the data set on ZFN 52032 (synthetic), 53.9 % indels. In the data set with ZFN 52015 (synthetic), this sequence displayed an activity of 35.2 % indels.

The values above are taken from patent US20180111975.
